According to patent publication US20200157212A1 (Pfizer, published 2020):

T1: Human ROBO2 overexpressed on HEK293 cells (human, UniProt Q9HCK4 22-1378)
T1 construct: also called ROBO2 cells; native ROBO2
T1 sequence: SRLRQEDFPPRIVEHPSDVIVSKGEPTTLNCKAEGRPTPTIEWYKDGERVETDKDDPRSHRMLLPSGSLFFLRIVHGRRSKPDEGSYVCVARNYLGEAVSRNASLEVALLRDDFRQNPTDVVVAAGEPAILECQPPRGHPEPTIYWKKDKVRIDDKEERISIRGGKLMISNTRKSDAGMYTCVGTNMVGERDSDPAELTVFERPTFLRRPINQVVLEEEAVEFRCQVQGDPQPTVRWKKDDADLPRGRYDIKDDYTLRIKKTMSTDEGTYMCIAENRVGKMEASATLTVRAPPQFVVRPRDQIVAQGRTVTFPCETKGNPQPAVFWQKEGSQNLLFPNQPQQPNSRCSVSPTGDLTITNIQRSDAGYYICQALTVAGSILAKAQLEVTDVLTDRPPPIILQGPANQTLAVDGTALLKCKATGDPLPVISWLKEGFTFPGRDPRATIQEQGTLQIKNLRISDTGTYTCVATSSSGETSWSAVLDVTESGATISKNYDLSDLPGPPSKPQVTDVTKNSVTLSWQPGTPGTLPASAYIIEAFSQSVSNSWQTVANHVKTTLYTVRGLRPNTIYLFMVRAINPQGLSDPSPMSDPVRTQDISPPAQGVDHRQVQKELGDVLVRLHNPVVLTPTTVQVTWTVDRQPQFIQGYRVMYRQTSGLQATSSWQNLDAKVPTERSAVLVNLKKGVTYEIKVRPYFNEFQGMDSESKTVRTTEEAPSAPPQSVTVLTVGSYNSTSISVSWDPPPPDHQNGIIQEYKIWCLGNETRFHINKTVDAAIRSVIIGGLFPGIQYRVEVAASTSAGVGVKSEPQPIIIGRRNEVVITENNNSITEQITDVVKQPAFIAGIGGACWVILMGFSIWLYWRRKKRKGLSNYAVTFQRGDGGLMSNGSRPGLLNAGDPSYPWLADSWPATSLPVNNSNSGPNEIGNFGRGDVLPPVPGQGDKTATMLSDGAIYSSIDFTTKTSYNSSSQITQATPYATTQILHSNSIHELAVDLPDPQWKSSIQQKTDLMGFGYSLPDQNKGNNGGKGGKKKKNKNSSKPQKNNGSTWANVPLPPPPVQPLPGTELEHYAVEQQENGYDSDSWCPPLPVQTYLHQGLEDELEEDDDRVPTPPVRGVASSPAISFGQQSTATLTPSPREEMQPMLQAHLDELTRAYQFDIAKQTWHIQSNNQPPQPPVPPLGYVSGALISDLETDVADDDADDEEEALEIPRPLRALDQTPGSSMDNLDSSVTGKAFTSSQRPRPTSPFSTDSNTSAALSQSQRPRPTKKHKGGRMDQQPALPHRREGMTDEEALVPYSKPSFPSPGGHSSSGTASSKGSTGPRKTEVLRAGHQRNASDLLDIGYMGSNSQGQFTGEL

T2: Terbium (Tb) labeled-SNAP tagged ROBO2 expressed on HEK293 cells (Homo sapiens (Human), UniProt Q9HCK4 22-1378, terbium label on the SNAP tag)
T2 construct: also called Tb-labeled ROBO2 cells; ROBO2 expressing cells; not shown: SNAP tag
T2 sequence: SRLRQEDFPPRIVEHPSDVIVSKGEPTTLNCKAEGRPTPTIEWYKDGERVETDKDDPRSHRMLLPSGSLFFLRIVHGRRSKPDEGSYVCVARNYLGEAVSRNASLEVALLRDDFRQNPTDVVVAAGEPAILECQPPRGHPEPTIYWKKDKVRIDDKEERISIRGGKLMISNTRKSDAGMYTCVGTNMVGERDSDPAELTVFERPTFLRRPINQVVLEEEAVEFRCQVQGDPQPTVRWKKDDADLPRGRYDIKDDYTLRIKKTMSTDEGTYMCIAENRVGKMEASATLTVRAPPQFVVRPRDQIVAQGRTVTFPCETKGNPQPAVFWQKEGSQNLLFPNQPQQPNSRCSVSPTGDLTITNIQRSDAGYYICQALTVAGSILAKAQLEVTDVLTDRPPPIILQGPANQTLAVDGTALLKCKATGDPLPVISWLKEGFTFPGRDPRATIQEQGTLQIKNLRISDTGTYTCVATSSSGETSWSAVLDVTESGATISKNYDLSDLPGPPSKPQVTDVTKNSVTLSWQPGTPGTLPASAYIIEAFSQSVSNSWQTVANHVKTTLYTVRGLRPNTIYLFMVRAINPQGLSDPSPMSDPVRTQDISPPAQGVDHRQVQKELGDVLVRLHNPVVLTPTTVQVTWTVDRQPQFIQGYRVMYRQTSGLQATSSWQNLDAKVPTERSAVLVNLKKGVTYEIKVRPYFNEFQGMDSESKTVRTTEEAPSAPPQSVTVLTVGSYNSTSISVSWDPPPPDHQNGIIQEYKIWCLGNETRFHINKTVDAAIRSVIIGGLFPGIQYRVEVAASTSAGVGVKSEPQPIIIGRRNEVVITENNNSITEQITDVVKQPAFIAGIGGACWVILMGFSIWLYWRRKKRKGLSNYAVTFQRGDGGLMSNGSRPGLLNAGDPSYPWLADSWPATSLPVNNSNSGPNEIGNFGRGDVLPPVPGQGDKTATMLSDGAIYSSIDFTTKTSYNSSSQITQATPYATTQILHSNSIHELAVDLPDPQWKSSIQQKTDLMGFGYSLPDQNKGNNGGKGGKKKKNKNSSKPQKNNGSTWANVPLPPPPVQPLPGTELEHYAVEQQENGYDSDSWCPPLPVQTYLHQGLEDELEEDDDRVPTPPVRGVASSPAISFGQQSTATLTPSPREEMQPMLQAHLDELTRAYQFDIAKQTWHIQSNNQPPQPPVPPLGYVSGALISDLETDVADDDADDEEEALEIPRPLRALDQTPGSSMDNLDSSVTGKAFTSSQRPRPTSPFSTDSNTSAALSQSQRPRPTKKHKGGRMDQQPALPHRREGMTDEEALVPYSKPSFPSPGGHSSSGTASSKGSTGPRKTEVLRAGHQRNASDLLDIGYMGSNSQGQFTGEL


Assays:
[1] = molecular target: T1, Human ROBO2 overexpressed on HEK293 …; assay: flow cytometry, HEK293 cells, average of n = 5
Method: Binding of the antibodies was detected using a secondary fluorochrome conjugated anti-human IgG F(ab′)₂ antibody and samples were analyzed on a Fortessa cytometer (BD Biosciences). The fold ROBO2 selectivity was calculated as the geometric mean fluorescence intensity (Geo MFI) with ROBO2 cells/Geo MFI with ROBO1 cells. A fold change higher than 3 was considered to be ROBO2 specific (Table 2, Fold Selectivity). Some affinity matured clones had increased ROBO1 reactivity, for example Abcs 55, CTI-R2-10 and CTIR2-13.
Based upon several criteria, Abcs25 and Abcs35 were selected for further characterization. Using flow cytometry, improvement in the binding EC₅₀ to human ROBO2 relative to the parental 93H2 was evaluated. Starting at 6.7 nM, 11-point, 3-fold dilution series were made for each antibody and used to stain HEK293 overexpressing human ROBO2 as described above for the ROBO2 fold selectivity (Example 2). […] In addition to measuring improved binding to human ROBO2, it was important to ensure that high affinity binding to both cynomolgus monkey ROBO2 and rat ROBO2 was maintained. Using HEK293 cells overexpressing either cynomolgus monkey ROBO2 or rat ROBO2, the relative dose-dependent binding of 93H2, Abcs25 and Abcs35 was evaluated as described above. High affinity binding to both cynomolgus monkey and rat ROBO2 was maintained in Abcs25 and Abcs35 (Table 4). […] Briefly, Abcs35 was immobilized to 300 resonance units (RU) on a CM5 chip. Association of ROBO2 Ig1-Ig2-His (ROBO2) was measured over 5 minutes and dissociation was followed for a period of 10 minutes.

[2] = molecular target: T2, Terbium (Tb) labeled-SNAP tagged ROBO2 …; assay: HTRF competition, competitor d2-SLIT2-N, ROBO2 HEK293 cells
Method in brief: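 HEK293 cells expressing Tb-labeled SNAP-ROBO2 were incubated 1 hour with 5 nM d2-SLIT2-N plus antibody, read as the 665/620 nm HTRF ratio. Controls were no antibody (maximal) and cells alone (minimal). Screening used 1 nM antibody; IC₅₀ came from 11-point, 5-fold dilutions starting at 1500 nM.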

EC50 [1]	IC50 [2]	Binder
0.133 nM	4.22 nM	93H2 (antibody, human IgG1, kappa, V domains shown, also called parental 93H2; 93H2 mAb) VH: EVQLVQSGAEVKKPGASVKVSCKASGYTFTGYYMHWVRQAPGQGLEWMGWINPNSGATNFPQKFQGRVTMTRDTSITTAYMDLSRLRSDDTAVYYCARESGDDAFDIWGQGTMVTVSS VL: not shown
–	0.057 nM	Abcs55 (antibody, human IgG1, kappa, V domains shown, chain-shuffled IgG) VH: EVQLVQSGAEVKKPGASVKVSCKASGYTFTGYYMHWVRQAPGQGLEWMGWINPKDGDTEFPQKFQGRVTMTRDTSITTAYMDLSRLRSDDTAVYYCARESGDDAFDIWGQGTMVTVSS VL: DIVMTQSPSSLSASVGDRVTITCRASQSISSYLNWYQQKPGKAPKLLIYAASSLQYGVPSRFSGSGSGTDFTLTISSLQPEDFATYYCQQSYSTSFGGGTKVEIKR
–	0.056 nM	CTIR2-16 (antibody, human IgG1, kappa, V domains shown, CDR-shuffled IgG) VH: EVQLVQSGAEVKKPGASVKVSCKASGYTFRGYAMHWVRQAPGQGLEWMGWIDPRTGLTKFPQKFQGRVTMTRDTSITTAYMDLSRLRSDDTAVYYCARESGDDAFDIWGQGTMVTVSS VL: DIVMTQSPSSLSASVGDRVTITCRASQKISSYLNWYQQKPGKAPKLLIYAASSLQYGVPSRFSGSGSGTDFTLTISSLQPEDFATYYCQQSVGLFFGGGTKVEIKR
–	0.037 nM	CTIR2-14 (antibody, human IgG1, kappa, V domains shown, CDR-shuffled IgG) VH: EVQLVQSGAEVKKPGASVKVSCKASGYTFRGYAMHWVRQAPGQGLEWMGWIDPRTGLTKFPQKFQGRVTMTRDTSITTAYMDLSRLRSDDTAVYYCARESGDDAFDIWGQGTMVTVSS VL: DIVMTQSPSSLSASVGDRVTITCRASQKISSYLNWYQQKPGKAPKLLIYAASSLQYGVPSRFSGSGSGTDFTLTISSLQPEDFATYYCQQSLELGFGGGTKVEIKR
–	0.04 nM	Abcs20 (antibody, human IgG1, kappa, V domains shown, chain-shuffled IgG) VH: EVQLVQSGAEVKKPGASVKVSCKASGYTFTGYYMHWVRQAPGQGLEWMGWINPKNGDTEFPQKFQGRVTMTRDTSITTAYMDLSRLRSDDTAVYYCARESGDDAFDIWGQGTMVTVSS VL: DIVMTQSPSSLSASVGDRVTITCRASQSISSYLNWYQQKPGKAPKLLIYAASSLQSGVPSRFSGSGSGTDFTLTISSLQPEDFATYYCQQSVGLSFGGGTKVEIKR
–	0.05 nM	CTIR2-15 (antibody, human IgG1, kappa, V domains shown, CDR-shuffled IgG) VH: EVQLVQSGAEVKKPGASVKVSCKASGYTFRGYAMHWVRQAPGQGLEWMGWIDPRTGLTKFPQKFQGRVTMTRDTSITTAYMDLSRLRSDDTAVYYCARESGDDAFDIWGQGTMVTVSS VL: DIVMTQSPSSLSASVGDRVTITCRASQKISSYLNWYQQKPGKAPKLLIYAASSLQYGVPSRFSGSGSGTDFTLTISSLQPEDFATYYCQQSVGLSFGGGTKVEIKR
–	0.048 nM	Abcs40 (antibody, human IgG1, kappa, V domains shown, chain-shuffled IgG) VH: EVQLVQSGAEVKKPGASVKVSCKASGYTFTGYYMHWVRQAPGQGLEWMGWINPKDGDTEFPQKFQGRVTMTRDTSITTAYMDLSRLRSDDTAVYYCARESGDDAFDIWGQGTMVTVSS VL: DIVMTQSPSSLSASVGDRVTITCRASQSISSYLNWYQQKPGKAPKLLIYAASSLQSGVPSRFSGSGSGTDFTLTISSLQPEDFATYYCQQSVGLFFGGGTKVEIKR
0.068 nM	0.042 nM	Abcs25 (antibody, human IgG1, kappa, V domains shown, chain-shuffled IgG) VH: EVQLVQSGAEVKKPGASVKVSCKASGYTFTGYYMHWVRQAPGQGLEWMGWINPKDGDTEFPQKFQGRVTMTRDTSITTAYMDLSRLRSDDTAVYYCARESGDDAFDIWGQGTMVTVSS VL: DIVMTQSPSSLSASVGDRVTITCRASQSISSYLNWYQQKPGKAPKLLIYAASSLQSGVPSRFSGSGSGTDFTLTISSLQPEDFATYYCQQSVGLSFGGGTKVEIKR

Binder	EC50 [1]	IC50 [2]
Abcs35 (antibody, human IgG1, kappa, fully human IgG1; VH of Ab96 with VL of Ab123) heavy: EVQLVQSGAEVKKPGASVKVSCKASGYTFTGYYMHWVRQAPGQGLEWMGWINPKNGDTEFPQKFQGRVTMTRDTSITTAYMDLSRLRSDDTAVYYCARESGDDAFDIWGQGTMVTVSSASTKGPSVFPLAPSSKSTSGGTAALGCLVKDYFPEPVTVSWNSGALTSGVHTFPAVLQSSGLYSLSSVVTVPSSSLGTQTYICNVNHKPSNTKVDKKVEPKSCDKTHTCPPCPAPEAAGAPSVFLFPPKPKDTLMISRTPEVTCVVVDVSHEDPEVKFNWYVDGVEVHNAKTKPREEQYNSTYRVVSVLTVLHQDWLNGKEYKCKVSNKALPAPIEKTISKAKGQPREPQVYTLPPSREEMTKNQVSLTCLVKGFYPSDIAVEWESNGQPENNYKTTPPVLDSDGSFFLYSKLTVDKSRWQQGNVFSCSVMHEALHNHYTQKSLSLSPGK light: DIVMTQSPSSLSASVGDRVTITCRASQSISSYLNWYQQKPGKAPKLLIYAASSLQSGVPSRFSGSGSGTDFTLTISSLQPEDFATYYCQQSVGLFFGGGTKVEIKRTVAAPSVFIFPPSDEQLKSGTASVVCLLNNFYPREAKVQWKVDNALQSGNSQESVTEQDSKDSTYSLSSTLTLSKADYEKHKVYACEVTHQGLSSPVTKSFNRGEC	0.082 nM	0.041 nM
